For 26 sequences, protein stability index results are on record in the supplement of paper PMC9732359.

This data set can be described thus: protein stability index of a GFP-peptide fusion (yeast GPS) (PSI 1-4); higher = more stable; sorted into four equal gates, so the index is relative within each strain. Summed up:
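Each library plasmid carries Cherry plus GFP with a tiled 17-residue yeast protein peptide fused downstream, and the pooled library was carried in yeast. Mid-log cultures in leucine-free medium were sorted into four equal gates by GFP/Cherry ratio. Reads from Illumina sequencing of PCR-amplified plasmids from each gate were assigned to strains by barcodes. Per peptide, the protein stability index was computed as the summed products of gate read frequency and gate number.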

± gives the uncertainty stated by the source.

For the sequence TEAGFFAIRDDRDHINP [RPT4], the protein stability index runs as follows: (doa10∆) 2.49 ± 0.08; (pdr5∆) 2.99 ± 0.072; (san1∆) 3.12 ± 0.058; (ubr1∆) 3.27 ± 0.045.

NTAFGNSNPTSNVFGSN [YJL041W/NSP1] gave a protein stability index (doa10∆) of 3.06 ± 0.13, a protein stability index (pdr5∆) of 3.6 ± 0.17 and a protein stability index (ubr1∆) of 3.6 ± 0.16.

In the case of YEFPIEGIEIYDRKKLP [RPC11], the protein stability index was determined as 3.16 ± 0.14 (doa10∆), 3.01 ± 0.094 (pdr5∆), 1.91 ± 0.14 (san1∆) and 3.3 ± 0.17 (ubr1∆).

For IVFDNTDKSNSPIGFTN [SMC2], the protein stability index by setting is: (doa10∆) 3.1 ± 0.049; (pdr5∆) 3.15 ± 0.063; (san1∆) 3.15 ± 0.052; (ubr1∆) 2.96 ± 0.068.

For SPYERRLIDLIRNSGEK [RPL36A], the protein stability index is, setting by setting: (doa10∆) 1.86 ± 0.093; (pdr5∆) 1.89 ± 0.098; (san1∆) 1.68 ± 0.16; (ubr1∆) 1.89 ± 0.086.

LEWNMANLLFKKEKLKQ [RPC82]: the protein stability index reads like this: (doa10∆) 2.13 ± 0.11; (pdr5∆) 1.45 ± 0.049; (san1∆) 1.38 ± 0.13; (ubr1∆) 1.37 ± 0.082.

In the case of EKTYTKAPKIQRLVTPQ [RPS6A], the protein stability index reads like this: (doa10∆) 2.62 ± 0.056; (pdr5∆) 2.43 ± 0.055; (san1∆) 2.11 ± 0.064; (ubr1∆) 2.22 ± 0.037.

As for RPSFQNNRISNANEISA [SWP82], the protein stability index (doa10∆) was determined as 2.22 ± 0.043, the protein stability index (pdr5∆) is 2.29 ± 0.047, the protein stability index (san1∆) was 1.99 ± 0.082 and the protein stability index (ubr1∆) turned out to be 2.47 ± 0.054.

On to QRYQDLSQQQKDAQKKD [YIL149C/MLP2], for which the protein stability index (doa10∆) came to 3.09 ± 0.08, the protein stability index (pdr5∆) was found to be 3.08 ± 0.062, the protein stability index (san1∆) turned out to be 2.79 ± 0.071 and the protein stability index (ubr1∆) came out at 2.94 ± 0.046.

For the sequence RSWNEPSKSQTNFKEEI [YML103C/NUP188], the protein stability index was 2.9 ± 0.12 (doa10∆), 2.98 ± 0.13 (pdr5∆), 3.17 ± 0.12 (san1∆) and 3.11 ± 0.075 (ubr1∆).

Take PSLYRLLNILITYGIIK [SRB8]: the protein stability index (doa10∆) stood at 1.37 ± 0.12, the protein stability index (pdr5∆) worked out at 1.07 ± 0.12 and the protein stability index (ubr1∆) stood at 1.04 ± 0.044.

Consider INKMVGNRYLEKRLNLR [RPL21A], for which the protein stability index was determined as 2.65 ± 0.085 (doa10∆), 2.8 ± 0.077 (pdr5∆), 2.92 ± 0.092 (san1∆) and 3 ± 0.065 (ubr1∆).

As for NAVSFDTTFSDFKEVED [SRB4], the protein stability index is, setting by setting: (doa10∆) 3.13 ± 0.043; (pdr5∆) 2.53 ± 0.039; (san1∆) 2.6 ± 0.039; (ubr1∆) 2.74 ± 0.039.

QLGYIENSFYKKEASKT [POP1]: the protein stability index is, setting by setting: (doa10∆) 2.27 ± 0.061; (pdr5∆) 2.43 ± 0.058; (san1∆) 2.43 ± 0.056; (ubr1∆) 2.39 ± 0.044.

Regarding VAASIIPFPDHNQSPRN [RPB2], the protein stability index was 2.37 ± 0.09 (doa10∆), 2.21 ± 0.076 (pdr5∆), 2.33 ± 0.12 (san1∆) and 2.63 ± 0.078 (ubr1∆).

As to EWRKSAIANTLLYLRLK [PRP8], the protein stability index is 1.85 ± 0.063 (doa10∆), 1.54 ± 0.051 (pdr5∆), 1.41 ± 0.095 (san1∆) and 1.37 ± 0.047 (ubr1∆).

As to ALVYSYIEASGREGIWS [RPC34], the protein stability index worked out at 3.13 ± 0.24 (doa10∆), 2.87 ± 0.24 (pdr5∆), 2.28 ± 0.17 (san1∆) and 2.52 ± 0.11 (ubr1∆).

Consider QFTRFFLLVPSKQVQVS [ECM29], for which the protein stability index reads like this: (doa10∆) 1.27 ± 0.075; (pdr5∆) 1.18 ± 0.061; (san1∆) 1.19 ± 0.11; (ubr1∆) 1.21 ± 0.072.

As to DLTRVYKAISAQADKQD [FAS2], the protein stability index reads like this: (doa10∆) 1.54 ± 0.054; (pdr5∆) 1.72 ± 0.049; (san1∆) 1.74 ± 0.1; (ubr1∆) 1.75 ± 0.044.

Consider IRKLTLRDTFIELDQVL [RPO21], for which the protein stability index (doa10∆) was determined as 2.31 ± 0.12, the protein stability index (pdr5∆) is 2.89 ± 0.079, the protein stability index (san1∆) is 2.7 ± 0.074 and the protein stability index (ubr1∆) was determined as 2.23 ± 0.11.

As for NSMDISMFSGLDSTGFD [MED2], the protein stability index (doa10∆) was 2.83 ± 0.059, the protein stability index (pdr5∆) was found to be 3.06 ± 0.055, the protein stability index (san1∆) is 3.21 ± 0.041 and the protein stability index (ubr1∆) came to 2.83 ± 0.049.

Take ASLKIKNATDLQQAKLR [SMC3]: the protein stability index (doa10∆) came out at 3.11 ± 0.12, the protein stability index (pdr5∆) is 2.96 ± 0.11, the protein stability index (san1∆) was determined as 2.93 ± 0.13 and the protein stability index (ubr1∆) was found to be 3.09 ± 0.095.

As for SNIMSDSKKIKVDSPDD [GAL11], the protein stability index is, setting by setting: (doa10∆) 2.9 ± 0.078; (pdr5∆) 2.73 ± 0.079; (san1∆) 3.03 ± 0.072; (ubr1∆) 2.88 ± 0.061.

Under “pdr5∆”, MSDPSSINGGIVVAMTG [PUP3] gave a protein stability index of 2.39 ± 0.21.

In the case of YAIIINYTKDNEYYPMC [YCS4], the protein stability index was 1.36 ± 0.071 (doa10∆), 1.44 ± 0.092 (pdr5∆), 1.61 ± 0.13 (san1∆) and 1.51 ± 0.082 (ubr1∆).

On to TMMTVEEKPDVTYSDVG [RPT1], for which the protein stability index by setting is: (doa10∆) 2.58 ± 0.1; (pdr5∆) 2.42 ± 0.068; (san1∆) 1.83 ± 0.14; (ubr1∆) 2.3 ± 0.055.
